Measured values from the supplement of paper PMC10724198.
± gives the standard deviation of the averaged measurements.

Tests used:
[1] = test system: Saccharomyces cerevisiae; assay: protein stability index of tFT-peptide fusion (C-terminal peptide) (PSI (0-1 scale)); higher = more stable (slower turnover); details: genetic background: wild type; temperature: 30 C
[2] = test system: Saccharomyces cerevisiae; assay: as above
Experimental: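 MPS profiling in S. cerevisiae of the tFT-X12 degron library: putative degron peptides plus stable controls, 12 aa, fused to the C-terminus of a sfGFP-mCherry timer. Cells are FACS-sorted into 8 mCherry/sfGFP bins and deep-sequenced. PSI runs from 0 (unstable) to 1 (stable). Backgrounds are wild type, das1Δ and doa10Δ at 30 °C, and wild type, das1Δ, cdc34-1 and cdc53-1 at 37 °C; 2-3 technical replicates each.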

[3] = genetic background: cdc34-1, temperature: 37 C
[4] = genetic background: das1 deletion, temperature: 30 C
[5] = genetic background: das1 deletion, temperature: 37 C
[6] = genetic background: doa10 deletion, temperature: 30 C
[7] = genetic background: wild type, temperature: 30 C
[8] = genetic background: wild type, temperature: 37 C
[9] = genetic background: cdc53-1, temperature: 37 C
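Also: PSI is a weighted mean of sequencing reads over stability bins, variants kept only with over 10 reads, mCherry proximal and sfGFP distal, peptide attached via GGGS linker.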

Row | Sequence | protein stability index [1] | protein stability index [2, 3] | protein stability index [2, 4] | protein stability index [2, 5] | protein stability index [2, 6] | protein stability index [2, 7] | protein stability index [2, 8] | protein stability index [2, 9]
1 | PFALTPPPSPRS | 0.426 ± 0.043 | 0.745 ± 0.011 | 0.384 ± 0.024 | 0.583 ± 0.0083 | 0.356 ± 0.024 | 0.366 ± 0.0092 | 0.52 ± 0.046 | –
2 | TEVGAWLLLCRC | 0.363 ± 0.009 | 0.271 ± 0.051 | 0.268 ± 0.034 | 0.403 ± 0.02 | 0.231 ± 0.0043 | 0.277 ± 0.017 | 0.385 ± 0.0097 | 0.307 ± 0.01
3 | VLGPRFCFVCHA | 0.3455 ± 0.0025 | 0.555 ± 0.067 | 0.444 ± 0.039 | 0.6194 ± 0.0023 | 0.223 ± 0.0071 | 0.253 ± 0.033 | 0.4594 ± 0.003 | 0.604 ± 0.03
4 | CSVPLGVFAIVV | 0.48 ± 0.019 | 0.463 ± 0.0057 | 0.382 ± 0.028 | 0.514 ± 0.0019 | 0.347 ± 0.0035 | 0.365 ± 0.038 | 0.4894 ± 0.0029 | 0.471 ± 0.032
5 | GILLLLISRVVF | 0.371 ± 0.011 | 0.278 ± 0.032 | 0.229 ± 0.047 | 0.469 ± 0.0056 | 0.197 ± 0.039 | 0.227 ± 0.021 | 0.413 ± 0.0093 | 0.373 ± 0.025
6 | SQSNQSIIRKNV | 0.453 ± 0.02 | 0.7 ± 0.043 | 0.63 ± 0.013 | 0.737 ± 0.016 | 0.296 ± 0.034 | 0.36 ± 0.032 | 0.551 ± 0.069 | 0.713 ± 0.0077
7 | VAWWVCIRSCCG | 0.486 ± 0.028 | 0.51 ± 0.023 | 0.427 ± 0.027 | 0.577 ± 0.012 | 0.353 ± 0.012 | 0.395 ± 0.015 | 0.53 ± 0.0066 | 0.55 ± 0.057
8 | AGVRCPLFWLVC | 0.156 ± 0.0027 | 0.461 ± 0.049 | 0.498 ± 0.033 | 0.632 ± 0.013 | 0.131 ± 0.012 | 0.138 ± 0.0075 | 0.148 ± 0.01 | 0.622 ± 0.032
9 | FLAWSVGILCRV | 0.317 ± 0.018 | 0.228 ± 0.023 | 0.238 ± 0.036 | 0.351 ± 0.011 | 0.213 ± 0.0026 | 0.224 ± 0.041 | 0.318 ± 0.023 | 0.225 ± 0.022
10 | VGTIVLTCIEVN | 0.279 ± 0.017 | 0.0595 ± 0.022 | 0.191 ± 0.022 | 0.22 ± 0.0081 | 0.1519 ± 0.00081 | 0.187 ± 0.011 | 0.205 ± 0.0017 | 0.0586 ± 0.013
11 | VFLPVMVFFTFS | 0.4 ± 0.013 | 0.337 ± 0.013 | 0.277 ± 0.03 | 0.49592 ± 0.00031 | 0.255 ± 0.0082 | 0.282 ± 0.016 | 0.469 ± 0.016 | 0.457 ± 0.066
12 | IGSFYVLSFICQ | 0.475 ± 0.02 | 0.593 ± 0.043 | 0.454 ± 0.021 | 0.626 ± 0.019 | 0.438 ± 0.024 | 0.458 ± 0.043 | 0.592 ± 0.014 | 0.61 ± 0.018
13 | WVSFYLLFFFSF | 0.483 ± 0.023 | 0.459 ± 0.007 | 0.42 ± 0.044 | 0.539 ± 0.015 | 0.395 ± 0.0067 | 0.395 ± 0.017 | 0.5 ± 0.015 | 0.4959 ± 0.0028
14 | SIPFWPVLFFLL | 0.14 ± 0.033 | 0.353 ± 0.021 | 0.494 ± 0.018 | 0.6088 ± 0.0044 | 0.0877 ± 0.011 | 0.091 ± 0.011 | 0.0952 ± 0.0057 | 0.475 ± 0.014
15 | FFSLRRAVTVSA | 0.349 ± 0.069 | 0.208 ± 0.013 | 0.212 ± 0.028 | 0.372 ± 0.0052 | 0.168 ± 0.0042 | 0.2 ± 0.029 | 0.3273 ± 0.002 | 0.217 ± 0.0034
